Data reported in US20140336127A1, “Stabilized Peptide Helices For Inhibiting Dimerization Of Chemokine C Motif Receptor 2 (CCR2)” (Yissum Research Development Company of the Hebrew …, priority 2012, published 2014).
Starred links: 1 amine or outer side, 2 acyl side, 3 side chain; linkers in the order of their positions; H or OH if unused. Positions of bridges follow the written chain, without caps; N, C: chain ends. Non-standard residues stand in square brackets, D forms with d. Residues, ends and D or L forms follow the SMILES beside them. No end group written: not given here. BU = not defined here; CO = O=C([*:1])[*:2]

Legend:
intestinal peptidases = test: metabolic stability BBMV assay (degradation by intestinal peptidases); type: in vitro ADME, rat; details: 37° C.
Method: The enzymatic reaction is performed similar to what described in Ovadia et al. (2009, Bioorg Med Chem 18, 580-589): 2 mM stock solutions of the tested compounds are diluted with serum or purified brush border membrane vesicles (BBMVs) solution to a final concentration of 0.5 mM. During incubation at 37° C. samples are taken for a period of 90 minutes. The enzymatic reaction is stopped by adding 1:1 v/v of ice cold acetonitrile and centrifuge (4000 g, 10 min) before analysis.
The BBMVs are prepared from combined duodenum, jejunum, and upper ileum (male Wistar rats) by a Ca++ precipitation method (Gante, J., Angew Chem Int Edit 1994, 33, (17), 1699-1720; Hess et al., ibid). Purification of the BBMVs is assayed using GGT, LAP and alkaline phosphatase as membrane enzyme markers.
M3D-1 was tested for metabolic stability to degradation by intestinal peptidases using the BBMV assay described above. The linear CCR2b(61-67) peptide was used as a control.

cells = test: in vitro cytotoxicity assay; type: cell-based
CCR2 = biological target: T1, CCR2 (Homo sapiens, UniProt P41597); test: transwell migration assay with MCP-1 as chemoattractant (THP-1 cells); type: cell-based
T1 construct: endogenous in cells; host or cells: THP-1
T1 sequence (P41597 1-360 isoform P41597-2): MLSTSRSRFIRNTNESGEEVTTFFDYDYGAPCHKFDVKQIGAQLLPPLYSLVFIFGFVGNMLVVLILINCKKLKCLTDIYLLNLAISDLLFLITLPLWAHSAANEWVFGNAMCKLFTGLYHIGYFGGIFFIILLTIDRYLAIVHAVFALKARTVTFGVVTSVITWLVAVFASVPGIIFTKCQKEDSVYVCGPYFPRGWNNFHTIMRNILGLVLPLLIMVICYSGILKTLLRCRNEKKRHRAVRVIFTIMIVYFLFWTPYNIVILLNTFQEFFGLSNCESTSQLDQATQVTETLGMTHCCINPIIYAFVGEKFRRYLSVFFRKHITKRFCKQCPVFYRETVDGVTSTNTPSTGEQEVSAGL
Method: A transwell migration assay (Bignold, L. P., J Immunol Methods 1987, 105, (2), 275-80) was performed using MCP-1 as a chemoattractant. The chemokine MCP-1 reacts only with the chemokine receptors CCR2 and CCR4. […] In this experiment, THP-1 cells were placed in the upper well of the trans-migration plate and specific migration was induced by placing MCP-1 in the lower well. The cells were allowed to migrate spontaneously or toward the chemokine, and counted after migration. To evaluate the effect of hCCR2b(61-67) on MCP-1-induced migration, the peptide (10 μM) was incubated with the cells and the number of migrating cells in the lower wells were determined.
(§1) The simple transwell migration assay (Mandelboim, O. Protocol Exchange (2006) doi:10.1038/nprot.2006.210) was used for evaluating the chemotactic migration in the presence of M3D-1. M3D-1 inhibited THP-1 cells migration towards MCP-1 (FIG. 7 stripes).

CXCR4 = biological target: T2, CXCR4 (Homo sapiens, UniProt P61073); test: transwell migration assay, SDF-1 (CXCL12) induced migration; type: cell-based; details: cells migrating towards SDF-1; FIG. 7 crosshatch
T2 construct: endogenous in cells; host or cells: THP-1 (inferred; b171 says only 'cells')
Source text: as §1
SDF-1 is known to have strong chemotactic effects following specific interaction with the receptor CXCR4 (Bleul et al., ibid).

THP-1 cells = test: spontaneous migration of THP-1 cells without additional chemokines; type: cell-based, human; details: FIG. 7 dots
Method: THP-1 cells spontaneous migration was evaluated without additional chemokines.

T2 sequence (P61073 whole entry): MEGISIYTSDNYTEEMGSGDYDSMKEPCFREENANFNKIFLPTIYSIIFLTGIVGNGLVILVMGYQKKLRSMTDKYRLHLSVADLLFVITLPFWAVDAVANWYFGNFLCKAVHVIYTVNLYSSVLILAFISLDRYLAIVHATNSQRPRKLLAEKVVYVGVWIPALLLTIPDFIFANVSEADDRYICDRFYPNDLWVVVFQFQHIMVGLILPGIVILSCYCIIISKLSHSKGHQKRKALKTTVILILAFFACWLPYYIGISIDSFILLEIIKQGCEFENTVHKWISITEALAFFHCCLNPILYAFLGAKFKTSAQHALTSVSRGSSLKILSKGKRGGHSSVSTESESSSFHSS

| degradation by intestinal peptidases (intestinal peptidases; FIG. 9, linear control peptide) | inhibition of MCP-1-mediated migration (CCR2; THP-1 cells migrating towards MCP-1, concentration not given, FIG. 2 / FIG. 7) | concentration range blocking specific CCR2 chemokine mediated cell migration (CCR2; summary statement in the description) | inhibition of SDF-1 induced migration (CXCR4) | Molecule | toxicity to cells (cells) | time stable to degradation by intestinal peptidases (intestinal peptidases; FIG. 9) | number of cells that migrate in the absence of chemokine, with or without peptide (THP-1 cells) |
| --- | --- | --- | --- | --- | --- | --- | --- |
| completed degraded after about one hour |  |  |  | CC[C@H](C)[C@H](NC(=O)[C@H](CC(C)C)NC(=O)[C@@H](NC(=O)[C@@H](NC(=O)[C@H](CC(C)C)NC(=O)[C@@H](N)CCSC)C(C)C)C(C)C)C(=O)N[C@@H](CC(C)C)C(=O)O [hCCR2b(61-67), MLVVLIL] (H-MLVVLIL-OH; N-terminus and C-terminus assumed) |  |  |  |
|  | inhibited | low micro-molar range | no significant inhibition | M-L-V-BU-L-I-BU-NH2 (MLV[BU]LI[BU]-NH2; bridge 4-7 via CO; reading uncertain; also: printed as M-L-V-BU-L-I-BU-NH2) [M3D-1] | not toxic to cells | at least 3 hours | no significant difference |
